The chains are these.
B1: My96-H1L2 (antibody, human IgG1, V domains shown)
VH: QVQLVQSGAEVKKPGASVKVSCKASGYTFTSYYMHWVRQAPGQGLEWMGVIYPGNDDISYAQKFQGRVTMTADTSTSTVYMELSSLRSEDTAVYYCAREVRLRYFDVWGAGTTVTVSS
VL: NIVLTQSPDSLAVSLGERATINCKSSQSVFFSSSQKNYLAWYQQKPGQPPKLLIYWASTRESGVPDRFSGSGSGTDFTLTISSLQAEDVAVYYCHQYLSSRTFGGGTKLEIK
notes: Humanized My96 IgG (human IgG1 frameworks), expressed in DG44 cells; also called humanized My96 VH-1/VL-2
B2: My96-H3L1 (antibody, human IgG1, V domains shown)
VH: QVQLVQSGAEVKKPGASVKVSCKASGYTFTSYYIHWVRQAPGQGLEWMGVIYPGNDDISYAQKFQGRVTITADKSATTAYMELSSLRSEDTAVYYCAREVRLRYFDVWGQGTLVTVSS
VL: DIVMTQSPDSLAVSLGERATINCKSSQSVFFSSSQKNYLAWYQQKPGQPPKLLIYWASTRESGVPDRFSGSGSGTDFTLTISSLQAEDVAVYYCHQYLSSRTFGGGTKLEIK
notes: Humanized My96 IgG (human IgG1 frameworks), expressed in DG44 cells; also called hMy96 L1H3 (variable domains as in BsAb BC269); humanized My96 VH-3/VL-1
B3: My96-H3L2 (antibody, human IgG1, V domains shown)
VH: QVQLVQSGAEVKKPGASVKVSCKASGYTFTSYYIHWVRQAPGQGLEWMGVIYPGNDDISYAQKFQGRVTITADKSATTAYMELSSLRSEDTAVYYCAREVRLRYFDVWGQGTLVTVSS
VL: NIVLTQSPDSLAVSLGERATINCKSSQSVFFSSSQKNYLAWYQQKPGQPPKLLIYWASTRESGVPDRFSGSGSGTDFTLTISSLQAEDVAVYYCHQYLSSRTFGGGTKLEIK
notes: Humanized My96 IgG (human IgG1 frameworks), expressed in DG44 cells; also called hMy96 L2H3 (variable domains as in BsAb BC248); humanized My96 VH-3/VL-2
B4: My96-H2L1 (antibody, human IgG1, V domains shown)
VH: QVQLVQSGAEVKKPGASVKVSCKASGYTFTSYYMHWVRQAPGQGLEWMGVIYPGNDDISYNQKFQGRVTMTADKSTSTVYMELSSLRSEDTAVYYCAREVRLRYFDVWGAGTTVTVSS
VL: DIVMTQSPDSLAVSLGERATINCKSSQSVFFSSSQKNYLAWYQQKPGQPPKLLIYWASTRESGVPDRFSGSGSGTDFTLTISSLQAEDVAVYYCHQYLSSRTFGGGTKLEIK
notes: Humanized My96 IgG (human IgG1 frameworks), expressed in DG44 cells; also called hMy96 L1H2 (variable domains as in BsAb BC257); humanized My96 VH-2/VL-1
B5: My96-H3L3 (antibody, human IgG1, V domains shown)
VH: QVQLVQSGAEVKKPGASVKVSCKASGYTFTSYYIHWVRQAPGQGLEWMGVIYPGNDDISYAQKFQGRVTITADKSATTAYMELSSLRSEDTAVYYCAREVRLRYFDVWGQGTLVTVSS
VL: NIVLTQSPDSLAVSLGERATINCKSSQSVFFSSSQKNYLAWYQQRPGQPPKLLIYWASTRESGVPDRFSGSGSGTDFTLTISRLQAEDVAVYYCHQYLSSRTFGGGTKVEIK
notes: Humanized My96 IgG (human IgG1 frameworks), expressed in DG44 cells; also called humanized My96 VH-3/VL-3
B6: My96-H2L3 (antibody, human IgG1, V domains shown)
VH: QVQLVQSGAEVKKPGASVKVSCKASGYTFTSYYMHWVRQAPGQGLEWMGVIYPGNDDISYNQKFQGRVTMTADKSTSTVYMELSSLRSEDTAVYYCAREVRLRYFDVWGAGTTVTVSS
VL: NIVLTQSPDSLAVSLGERATINCKSSQSVFFSSSQKNYLAWYQQRPGQPPKLLIYWASTRESGVPDRFSGSGSGTDFTLTISRLQAEDVAVYYCHQYLSSRTFGGGTKVEIK
notes: Humanized My96 IgG (human IgG1 frameworks), expressed in DG44 cells; also called humanized My96 VH-2/VL-3
B7: My96-H1L3 (antibody, human IgG1, V domains shown)
VH: QVQLVQSGAEVKKPGASVKVSCKASGYTFTSYYMHWVRQAPGQGLEWMGVIYPGNDDISYAQKFQGRVTMTADTSTSTVYMELSSLRSEDTAVYYCAREVRLRYFDVWGAGTTVTVSS
VL: NIVLTQSPDSLAVSLGERATINCKSSQSVFFSSSQKNYLAWYQQRPGQPPKLLIYWASTRESGVPDRFSGSGSGTDFTLTISRLQAEDVAVYYCHQYLSSRTFGGGTKVEIK
notes: Humanized My96 IgG (human IgG1 frameworks), expressed in DG44 cells; also called humanized My96 VH-1/VL-3
B8: My96-H2L2 (antibody, human IgG1, V domains shown)
VH: QVQLVQSGAEVKKPGASVKVSCKASGYTFTSYYMHWVRQAPGQGLEWMGVIYPGNDDISYNQKFQGRVTMTADKSTSTVYMELSSLRSEDTAVYYCAREVRLRYFDVWGAGTTVTVSS
VL: NIVLTQSPDSLAVSLGERATINCKSSQSVFFSSSQKNYLAWYQQKPGQPPKLLIYWASTRESGVPDRFSGSGSGTDFTLTISSLQAEDVAVYYCHQYLSSRTFGGGTKLEIK
notes: Humanized My96 IgG (human IgG1 frameworks), expressed in DG44 cells; also called humanized My96 VH-2/VL-2
B9: My96-H1L1 (antibody, human IgG1, V domains shown)
VH: QVQLVQSGAEVKKPGASVKVSCKASGYTFTSYYMHWVRQAPGQGLEWMGVIYPGNDDISYAQKFQGRVTMTADTSTSTVYMELSSLRSEDTAVYYCAREVRLRYFDVWGAGTTVTVSS
VL: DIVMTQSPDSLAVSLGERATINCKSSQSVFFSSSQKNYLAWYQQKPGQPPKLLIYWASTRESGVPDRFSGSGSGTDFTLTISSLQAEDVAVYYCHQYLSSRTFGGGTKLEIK
notes: Humanized My96 IgG (CDRs grafted onto human IgG1 frameworks), expressed in DG44 cells; also called hMy96 H1L1; humanized My96 VH-1/VL-1
B10: chMy96 (antibody, V domains shown)
VH: QVQLQQPGAEVVKPGASVKMSCKASGYTFTSYYIHWIKQTPGQGLEWVGVIYPGNDDISYNQKFKGKATLTADKSSTTAYMQLSSLTSEDSAVYYCAREVRLRYFDVWGAGTTVTVSS
VL: NIMLTQSPSSLAVSAGEKVTMSCKSSQSVFFSSSQKNYLAWYQQIPGQSPKLLIYWASTRESGVPDRFTGSGSGTDFTLTISSVQSEDLAIYYCHQYLSSRTFGGGTKLEIK
notes: also called chimeric form of My96; chimeric anti-CD33 antibody

A word on the Kd: it is the equilibrium constant for the complex coming apart. For orientation: koff means the rate constant with which the complex falls apart. By kon is commonly meant the second-order rate constant of association.

T1 sequence (P20138 18-259 limits assumed): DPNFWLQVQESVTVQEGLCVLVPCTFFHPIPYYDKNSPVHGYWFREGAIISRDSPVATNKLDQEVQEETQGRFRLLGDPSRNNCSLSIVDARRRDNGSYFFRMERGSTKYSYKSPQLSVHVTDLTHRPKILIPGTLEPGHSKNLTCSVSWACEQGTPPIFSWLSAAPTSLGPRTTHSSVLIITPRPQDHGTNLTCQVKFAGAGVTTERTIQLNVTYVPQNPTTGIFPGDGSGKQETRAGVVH

The experiment addresses T1, CD33 (UniProt P20138 18-259, limits assumed).
T1 construct: CD33 protein used as the active surface in the Biacore assay (about 1000 RU); also called Siglec-3; SIGLEC3
As to the kind of experiment: SPR, Biacore T-200, CD33 amine-coupled on CM5 chip, antibody as analyte (31-500 nM). How it is done: To determine whether humanized anti-CD33 My96 antibodies bind to CD33 with equal affinity as the chimeric form, surface plasmon resonance assay using Biacore T-200 was performed. Biacore T-200 Biosensor, CM5 sensor chip, and related reagents were purchased from GE Healthcare. CD33 as the active surfaces and blank as the reference were immobilized onto the CM5 sensor chip at around 1000 RU (response units) using the Amino Coupling kit (GE Healthcare). CD33 antibodies and relevant control antibodies were diluted in HBS-EP buffer (0.01 M HEPES pH 7.4, 0.15 M NaCl, 3 mM EDTA, 0.05% v/v Surfactant P20) at varying concentrations (31-500 nM) prior to analysis. Samples were injected over the sensor surface at a flow rate of 30 μL/min over 1 min. Following completion of the association phase, dissociation was monitored in HBS-EP buffer for 3 min at the same flow rate or for 30 minutes at 37° C. for antibodies with slow koff. At the end of each cycle, the surface was regenerated using 10 mM NaOH at a flow rate of 50 μL/min over 30 sec. The biosensor curves obtained following injection of the samples over active surface were subtracted from the control curves obtained with the samples injected over reference surface prior to kinetics analysis. The data were analyzed using the Biacore T-200 evaluation software. As shown in the Table below, the humanized anti-CD33 My96 antibodies bound with similar kₒₙ and koff as the chimeric form of the antibodies.
(SPR reads the build-up and loss of mass on a sensor chip optically.)
Take B1: binding was characterised by a dissociation constant (Kd) of 0.218 pM, the dissociation rate constant (koff) amounted to 1.03e-07 s⁻¹ and the kon came out at 473000 M⁻¹ s⁻¹.
The like results for B2 were, in that order, 0.00645 pM, 3.63e-09 s⁻¹ and 563000 M⁻¹ s⁻¹.
Taken in the same sequence, the figures for B3 were 0.294 pM, 1.6e-07 s⁻¹ and 543000 M⁻¹ s⁻¹.
Taken in the same sequence, the figures for B4 were 2.42 pM, 1.51e-06 s⁻¹ and 623000 M⁻¹ s⁻¹.
For the molecule B5, the Kd was 0.324 pM, the koff was found to be 2.03e-07 s⁻¹ and the kon was 625000 M⁻¹ s⁻¹.
Taken in the same sequence, the figures for B6 were 0.143 pM, 9.16e-08 s⁻¹ and 641000 M⁻¹ s⁻¹.
The like results for B7 were, in that order, 0.88 pM, 4.95e-07 s⁻¹ and 563000 M⁻¹ s⁻¹.
In turn, B8 showed a dissociation constant (Kd) of 0.273 pM, a koff of 1.42e-07 s⁻¹ and a kon of 520000 M⁻¹ s⁻¹.
The like results for B9 were, in that order, 0.321 pM, 1.44e-07 s⁻¹ and 447000 M⁻¹ s⁻¹.
The like results for B10 were, in that order, 0.321 pM, 2.38e-07 s⁻¹ and 739000 M⁻¹ s⁻¹.

The values are drawn from patent US20220251192A1 (Memorial Sloan Kettering, published 2022).
